# Assay results as given in patent US9217036 (YALE UNIVERSITY, dated 2015).
# B1: full-length mouse PrP, cellular prion protein PrP^c (receptor)
# chain: not shown
# Target: biotin-tagged amyloid-beta 42-amino acid (Aβ42) peptide, oligomer preparation
# Assay: conclusion from the cell binding studies on transfected COS-7 cells
binder,measurement,value
B1,binding result,binds
